To fix the notation:
B1: C18DA-gGlu3-Sar12-PipAc-Tyr-Phe-NMeLeu-Nle-Arg-Pro-Arg-Gly-NH2 (peptide)
peptide: EEEXXXXXXXXXXXXXYFLXRPRG
HELM: PEPTIDE1{[O=C(O)CCCCCCCCCCCCCCCCC(=O)[*:2]].[gGlu].[gGlu].[gGlu].[Sar].[Sar].[Sar].[Sar].[Sar].[Sar].[Sar].[Sar].[Sar].[Sar].[Sar].[Sar].[O=C(CN1CCN([*:1])CC1)[*:2]].Y.F.[meL].[Nle].R.P.R.G.[am]}$$$$V2.0
SMILES: CCCC[C@H](NC(=O)[C@H](CC(C)C)N(C)C(=O)[C@H](Cc1ccccc1)NC(=O)[C@H](Cc1ccc(O)cc1)NC(=O)CN1CCN(C(=O)CN(C)C(=O)CN(C)C(=O)CN(C)C(=O)CN(C)C(=O)CN(C)C(=O)CN(C)C(=O)CN(C)C(=O)CN(C)C(=O)CN(C)C(=O)CN(C)C(=O)CN(C)C(=O)CN(C)C(=O)CC[C@H](NC(=O)CC[C@H](NC(=O)CC[C@H](NC(=O)CCCCCCCCCCCCCCCCC(=O)O)C(=O)O)C(=O)O)C(=O)O)CC1)C(=O)N[C@@H](CCCNC(=N)N)C(=O)N1CCC[C@H]1C(=O)N[C@@H](CCCNC(=N)N)C(=O)NCC(N)=O
B2: C18DA-gGlu2-Sar6-AEPipAc-Tyr-Phe-NMeLeu-Nle-Arg-Pro-Arg-Gly-NH2 (peptide)
peptide: EEXXXXXXXYFLXRPRG
HELM: PEPTIDE1{[O=C(O)CCCCCCCCCCCCCCCCC(=O)[*:2]].[gGlu].[gGlu].[Sar].[Sar].[Sar].[Sar].[Sar].[Sar].[O=C(CN1CCN(CCN[*:1])CC1)[*:2]].Y.F.[meL].[Nle].R.P.R.G.[am]}$$$$V2.0
SMILES: CCCC[C@H](NC(=O)[C@H](CC(C)C)N(C)C(=O)[C@H](Cc1ccccc1)NC(=O)[C@H](Cc1ccc(O)cc1)NC(=O)CN1CCN(CCNC(=O)CN(C)C(=O)CN(C)C(=O)CN(C)C(=O)CN(C)C(=O)CN(C)C(=O)CN(C)C(=O)CC[C@H](NC(=O)CC[C@H](NC(=O)CCCCCCCCCCCCCCCCC(=O)O)C(=O)O)C(=O)O)CC1)C(=O)N[C@@H](CCCNC(=N)N)C(=O)N1CCC[C@H]1C(=O)N[C@@H](CCCNC(=N)N)C(=O)NCC(N)=O
B3: C18DA-gGlu3-Sar9-AEPipAc-Tyr-Phe-NMeLeu-Nle-hLys-Pro-Arg-Gly-NH2 (peptide)
peptide: {C18 diacid}-[γGlu][γGlu][γGlu][Sar][Sar][Sar][Sar][Sar][Sar][Sar][Sar][Sar][Pipz(1-CH2CO,4-CH2CH2NH)]YF[NMeL][Nle][hLys]PRG-NH2
SMILES: CCCC[C@H](NC(=O)[C@H](CC(C)C)N(C)C(=O)[C@H](Cc1ccccc1)NC(=O)[C@H](Cc1ccc(O)cc1)NC(=O)CN1CCN(CCNC(=O)CN(C)C(=O)CN(C)C(=O)CN(C)C(=O)CN(C)C(=O)CN(C)C(=O)CN(C)C(=O)CN(C)C(=O)CN(C)C(=O)CN(C)C(=O)CC[C@H](NC(=O)CC[C@H](NC(=O)CC[C@H](NC(=O)CCCCCCCCCCCCCCCCC(=O)O)C(=O)O)C(=O)O)C(=O)O)CC1)C(=O)N[C@@H](CCCCCN)C(=O)N1CCC[C@H]1C(=O)N[C@@H](CCCNC(=N)N)C(=O)NCC(N)=O
B4: C18DA-gGlu3-Sar9-AEPipAc-Tyr-Phe-NMeLeu-Nle-Arg-NMeAla-Arg-Gly-NH2 (peptide)
peptide: EEEXXXXXXXXXXYFLXRARG
HELM: PEPTIDE1{[O=C(O)CCCCCCCCCCCCCCCCC(=O)[*:2]].[gGlu].[gGlu].[gGlu].[Sar].[Sar].[Sar].[Sar].[Sar].[Sar].[Sar].[Sar].[Sar].[O=C(CN1CCN(CCN[*:1])CC1)[*:2]].Y.F.[meL].[Nle].R.[meA].R.G.[am]}$$$$V2.0
SMILES: CCCC[C@H](NC(=O)[C@H](CC(C)C)N(C)C(=O)[C@H](Cc1ccccc1)NC(=O)[C@H](Cc1ccc(O)cc1)NC(=O)CN1CCN(CCNC(=O)CN(C)C(=O)CN(C)C(=O)CN(C)C(=O)CN(C)C(=O)CN(C)C(=O)CN(C)C(=O)CN(C)C(=O)CN(C)C(=O)CN(C)C(=O)CC[C@H](NC(=O)CC[C@H](NC(=O)CC[C@H](NC(=O)CCCCCCCCCCCCCCCCC(=O)O)C(=O)O)C(=O)O)C(=O)O)CC1)C(=O)N[C@@H](CCCNC(=N)N)C(=O)N(C)[C@@H](C)C(=O)N[C@@H](CCCNC(=N)N)C(=O)NCC(N)=O
B5: C18DA-gGlu3-Sar15-PipAc-Tyr-Phe-NMeLeu-Nle-Arg-Pro-Arg-Gly-NH2 (peptide)
peptide: EEEXXXXXXXXXXXXXXXXYFLXRPRG
HELM: PEPTIDE1{[O=C(O)CCCCCCCCCCCCCCCCC(=O)[*:2]].[gGlu].[gGlu].[gGlu].[Sar].[Sar].[Sar].[Sar].[Sar].[Sar].[Sar].[Sar].[Sar].[Sar].[Sar].[Sar].[Sar].[Sar].[Sar].[O=C(CN1CCN([*:1])CC1)[*:2]].Y.F.[meL].[Nle].R.P.R.G.[am]}$$$$V2.0
SMILES: CCCC[C@H](NC(=O)[C@H](CC(C)C)N(C)C(=O)[C@H](Cc1ccccc1)NC(=O)[C@H](Cc1ccc(O)cc1)NC(=O)CN1CCN(C(=O)CN(C)C(=O)CN(C)C(=O)CN(C)C(=O)CN(C)C(=O)CN(C)C(=O)CN(C)C(=O)CN(C)C(=O)CN(C)C(=O)CN(C)C(=O)CN(C)C(=O)CN(C)C(=O)CN(C)C(=O)CN(C)C(=O)CN(C)C(=O)CN(C)C(=O)CC[C@H](NC(=O)CC[C@H](NC(=O)CC[C@H](NC(=O)CCCCCCCCCCCCCCCCC(=O)O)C(=O)O)C(=O)O)C(=O)O)CC1)C(=O)N[C@@H](CCCNC(=N)N)C(=O)N1CCC[C@H]1C(=O)N[C@@H](CCCNC(=N)N)C(=O)NCC(N)=O
B6: C18DA-gGlu3-Sar9-AEPipAc-Tyr-Phe-NMeLeu-Nle-Arg-Pro-Arg-Gly-NH2 (peptide)
peptide: EEEXXXXXXXXXXYFLXRPRG
HELM: PEPTIDE1{[O=C(O)CCCCCCCCCCCCCCCCC(=O)[*:2]].[gGlu].[gGlu].[gGlu].[Sar].[Sar].[Sar].[Sar].[Sar].[Sar].[Sar].[Sar].[Sar].[O=C(CN1CCN(CCN[*:1])CC1)[*:2]].Y.F.[meL].[Nle].R.P.R.G.[am]}$$$$V2.0
SMILES: CCCC[C@H](NC(=O)[C@H](CC(C)C)N(C)C(=O)[C@H](Cc1ccccc1)NC(=O)[C@H](Cc1ccc(O)cc1)NC(=O)CN1CCN(CCNC(=O)CN(C)C(=O)CN(C)C(=O)CN(C)C(=O)CN(C)C(=O)CN(C)C(=O)CN(C)C(=O)CN(C)C(=O)CN(C)C(=O)CN(C)C(=O)CC[C@H](NC(=O)CC[C@H](NC(=O)CC[C@H](NC(=O)CCCCCCCCCCCCCCCCC(=O)O)C(=O)O)C(=O)O)C(=O)O)CC1)C(=O)N[C@@H](CCCNC(=N)N)C(=O)N1CCC[C@H]1C(=O)N[C@@H](CCCNC(=N)N)C(=O)NCC(N)=O
B7: C18DA-gGlu3-Sar6-AEPipAc-Tyr-Phe-NMeLeu-Nle-Arg-Pro-Arg-Gly-NH2 (peptide)
peptide: EEEXXXXXXXYFLXRPRG
HELM: PEPTIDE1{[O=C(O)CCCCCCCCCCCCCCCCC(=O)[*:2]].[gGlu].[gGlu].[gGlu].[Sar].[Sar].[Sar].[Sar].[Sar].[Sar].[O=C(CN1CCN(CCN[*:1])CC1)[*:2]].Y.F.[meL].[Nle].R.P.R.G.[am]}$$$$V2.0
SMILES: CCCC[C@H](NC(=O)[C@H](CC(C)C)N(C)C(=O)[C@H](Cc1ccccc1)NC(=O)[C@H](Cc1ccc(O)cc1)NC(=O)CN1CCN(CCNC(=O)CN(C)C(=O)CN(C)C(=O)CN(C)C(=O)CN(C)C(=O)CN(C)C(=O)CN(C)C(=O)CC[C@H](NC(=O)CC[C@H](NC(=O)CC[C@H](NC(=O)CCCCCCCCCCCCCCCCC(=O)O)C(=O)O)C(=O)O)C(=O)O)CC1)C(=O)N[C@@H](CCCNC(=N)N)C(=O)N1CCC[C@H]1C(=O)N[C@@H](CCCNC(=N)N)C(=O)NCC(N)=O
B8: C18DA-gGlu3-Sar9-AEPipAc-Tyr-Phe-NMeLeu-Nle-Orn-NMeAla-Arg-Gly-NH2 (peptide)
peptide: EEEXXXXXXXXXXYFLXXARG
HELM: PEPTIDE1{[O=C(O)CCCCCCCCCCCCCCCCC(=O)[*:2]].[gGlu].[gGlu].[gGlu].[Sar].[Sar].[Sar].[Sar].[Sar].[Sar].[Sar].[Sar].[Sar].[O=C(CN1CCN(CCN[*:1])CC1)[*:2]].Y.F.[meL].[Nle].[Orn].[meA].R.G.[am]}$$$$V2.0
SMILES: CCCC[C@H](NC(=O)[C@H](CC(C)C)N(C)C(=O)[C@H](Cc1ccccc1)NC(=O)[C@H](Cc1ccc(O)cc1)NC(=O)CN1CCN(CCNC(=O)CN(C)C(=O)CN(C)C(=O)CN(C)C(=O)CN(C)C(=O)CN(C)C(=O)CN(C)C(=O)CN(C)C(=O)CN(C)C(=O)CN(C)C(=O)CC[C@H](NC(=O)CC[C@H](NC(=O)CC[C@H](NC(=O)CCCCCCCCCCCCCCCCC(=O)O)C(=O)O)C(=O)O)C(=O)O)CC1)C(=O)N[C@@H](CCCN)C(=O)N(C)[C@@H](C)C(=O)N[C@@H](CCCNC(=N)N)C(=O)NCC(N)=O
B9: C18DA-gGlu3-Sar15-PipAc-Tyr-Phe-NMeLeu-Nle-Dbu-Pro-Arg-Gly-NH2 (peptide)
peptide: EEEXXXXXXXXXXXXXXXXYFLXXPRG
HELM: PEPTIDE1{[O=C(O)CCCCCCCCCCCCCCCCC(=O)[*:2]].[gGlu].[gGlu].[gGlu].[Sar].[Sar].[Sar].[Sar].[Sar].[Sar].[Sar].[Sar].[Sar].[Sar].[Sar].[Sar].[Sar].[Sar].[Sar].[O=C(CN1CCN([*:1])CC1)[*:2]].Y.F.[meL].[Nle].[Dab].P.R.G.[am]}$$$$V2.0
SMILES: CCCC[C@H](NC(=O)[C@H](CC(C)C)N(C)C(=O)[C@H](Cc1ccccc1)NC(=O)[C@H](Cc1ccc(O)cc1)NC(=O)CN1CCN(C(=O)CN(C)C(=O)CN(C)C(=O)CN(C)C(=O)CN(C)C(=O)CN(C)C(=O)CN(C)C(=O)CN(C)C(=O)CN(C)C(=O)CN(C)C(=O)CN(C)C(=O)CN(C)C(=O)CN(C)C(=O)CN(C)C(=O)CN(C)C(=O)CN(C)C(=O)CC[C@H](NC(=O)CC[C@H](NC(=O)CC[C@H](NC(=O)CCCCCCCCCCCCCCCCC(=O)O)C(=O)O)C(=O)O)C(=O)O)CC1)C(=O)N[C@@H](CCN)C(=O)N1CCC[C@H]1C(=O)N[C@@H](CCCNC(=N)N)C(=O)NCC(N)=O

The values that follow come from patent publication US20240279278A1, “NMU RECEPTOR 2 AGONISTS” (Boehringer Ingelheim International GmbH, priority 2023, published 2024).

Starred links: 1 amine or outer side, 2 acyl side, 3 side chain; linkers in the order of their positions; H or OH if unused. Non-standard residues stand in square brackets, D forms with d. *: point of attachment. Pipz(1-CH2CO,4-CH2CH2NH) = O=C(CN1CCN(CCN[*:1])CC1)[*:2]; C18 diacid = O=C(O)CCCCCCCCCCCCCCCCC(=O)*; γGlu = O=C(O)[C@H](CCC(=O)[*:2])N[*:1]; NMeL = CN[C@@H](CC(C)C)C(=O)O; hLys = NCCCCC[C@H](N)C(=O)O; Nle = CCCC[C@H](N)C(=O)O; Sar = CNCC(=O)O

This assay addresses T1, human neuromedin U receptor 1 (human, UniProt Q9HB89 24-426).
T1 sequence (looked up): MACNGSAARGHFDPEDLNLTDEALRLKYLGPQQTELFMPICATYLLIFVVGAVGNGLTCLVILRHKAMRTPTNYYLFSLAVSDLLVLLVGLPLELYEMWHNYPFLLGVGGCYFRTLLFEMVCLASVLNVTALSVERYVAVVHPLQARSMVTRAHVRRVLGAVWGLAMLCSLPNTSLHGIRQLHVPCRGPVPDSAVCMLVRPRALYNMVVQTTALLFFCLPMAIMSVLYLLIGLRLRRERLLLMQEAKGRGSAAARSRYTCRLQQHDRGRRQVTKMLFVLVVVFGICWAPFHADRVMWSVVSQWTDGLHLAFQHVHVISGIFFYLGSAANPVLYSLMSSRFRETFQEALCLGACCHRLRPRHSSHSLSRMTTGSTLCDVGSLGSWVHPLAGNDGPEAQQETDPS
The assay is described as follows: cell-based or functional assay.
Regarding B1, the “EC50 (hNMUR1) buffer” value was 110 nM.

Turning to B2, the “EC50 (hNMUR1) buffer” value was found to be 130 nM.

Take B3: the “EC50 (hNMUR1) buffer” value was determined as 1400 nM.

On to B4, for which the “EC50 (hNMUR1) buffer” value stood at 540 nM.

Take B5: the “EC50 (hNMUR1) buffer” value was found to be 130 nM.

On to B6, for which the “EC50 (hNMUR1) buffer” value was found to be 150 nM.

In the case of B7, the “EC50 (hNMUR1) buffer” value is 82 nM.

With B8, the “EC50 (hNMUR1) buffer” value is greater than 1000 nM.

In the case of B9, the “EC50 (hNMUR1) buffer” value was found to be 1100 nM.
